Laboratory results as given in the supplement of paper PMC12764529.
± gives the half width of the 95% confidence interval.

Tests used:
[1] = folding stability dG unfold from chymotrypsin proteolysis; higher = more stable
How it was run: (§1)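 Designed mini-proteins with no cysteine and under 80 residues were kept only if AlphaFold2 dimer inter-PAE was above 15. In a PA-tagged cDNA display construct, they were digested with trypsin and chymotrypsin and then sequenced. K50 was inferred by Bayesian fitting of counts, and unfolding free energy was derived per protease or combined against a sequence-predicted unfolded-state K50 and a shared folded-state K50.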

[2] = folding stability dG unfold (combined trypsin and chymotrypsin); higher = more stable
How it was run: as §1

[3] = folding stability dG unfold from trypsin proteolysis; higher = more stable
How it was run: as §1

Sequence | folding stability dG unfold [1] | folding stability dG unfold [2] | folding stability dG unfold [3]
SARIRFPDGKPIDMEIVNIHRTPNGLTITIVLRHKDEYRVITFEIPPDGEIRIKSVERVPLPPGDPALVSAG [r14_13_TrROS] | 3.37 ± 0.059 kcal/mol | 2.96 ± 0.12 kcal/mol | 1.46 ± 0.059 kcal/mol
SASASQTTIEYTVPVPAGTSPDEPLTLTVTLPDKEIPIEVGTLENLPPDATVTITLDTTEPTFTVTLTPSAG [r14_554_JUSTAS] | -0.451 ± 0.23 kcal/mol | 0.799 ± 0.096 kcal/mol | 1.52 ± 0.051 kcal/mol
SASESAVVEEEYTIDVTTVTPPGTPTTEPVRLTITRLPPNTVEVTLTAPDGKTVETRVIPLSVSLEELLSAG [r14_559_JUSTAS] | 0.134 ± 0.3 kcal/mol | 0.493 ± 0.16 kcal/mol | 0.413 ± 0.14 kcal/mol
SASFRLEFPGVRIEVEVEEVEVFPRPDGRPYRLYRAKIRFLDVPEELQALDFPFSLDDEIEVLFLVSLDSAG [r14_942_TrMRF] | 4.36 ± 0.12 kcal/mol | 4.18 ± 0.12 kcal/mol | 3.84 ± 0.07 kcal/mol
SASKKPKLIIVDIVIKPEELKKMKPEELIEKILKELGIPKEKDVKIDLFLEPVELDGEEYYIIPALITNSAG [r14_334_TrMRF] | 1.08 ± 0.14 kcal/mol | 1.24 ± 0.28 kcal/mol | 1.11 ± 0.13 kcal/mol
SASLANGGLRVDVELEFDPETHEIRVKRLTLYRGDEPVATADATIAVPPAAPPPPPVVVLDPDVPFDNESAG [r14_571_TrMRF] | 1.71 ± 0.084 kcal/mol | 1.28 ± 0.12 kcal/mol | 0.687 ± 0.075 kcal/mol
SASLEEILASLGYSVSRSVLPNGTEVVTARHPDGTTVTVTVTPDGTTVTVTPPDGTVTTLSVEDVRRALSAG [r14_578_JUSTAS] | 3.118 ± 0.017 kcal/mol | 3.03 ± 0.05 kcal/mol | 2.97 ± 0.045 kcal/mol
SASLVPTEREFELPGGERLRVTTPLDPNSDTPTVTVEKFTEAPDGTVTSTTTTVPPSEVAAVLEALGLRSAG [r14_416_JUSTAS] | 0.147 ± 0.045 kcal/mol | 0.423 ± 0.052 kcal/mol | 0.664 ± 0.023 kcal/mol
SASLVVRLPDGTEILFENLSLEEVVKLFDGGEIEIEPVPKLPVVNASSLEEAEEIAEKLKPDFVITLSGSAG [r14_445_TrMRF] | 1.6 ± 0.044 kcal/mol | 1.61 ± 0.074 kcal/mol | 1.6 ± 0.088 kcal/mol
SASNRVTVSSETVREGDKKLLKLTVTITDSSTGRTSTETLTTEDPEKAREELAARPDVSTLTFETLTPGSAG [r14_464_JUSTAS] | -0.196 ± 0.2 kcal/mol | 0.1 ± 0.19 kcal/mol | 0.303 ± 0.12 kcal/mol
SASPDAPVEVVVSLRELRERIEAEHPGRPVTPEDVAALAREELEAAGRPLEDLRVEAVDEATGTVRLVASAG [r14_303_JUSTAS] | 1.29 ± 0.019 kcal/mol | 0.907 ± 0.035 kcal/mol | -0.251 ± 0.054 kcal/mol
SASPDETVILEKVLPPSASPEEVEKEREEIREKLESLGAKVEVTIEPDPETGTIPIKITITKEQYEKLKSAG [r14_602_JUSTAS] | 0.0517 ± 0.056 kcal/mol | 0.034 ± 0.15 kcal/mol | -0.459 ± 0.064 kcal/mol
SASPRTITVPVTRFPDGTVRFTIETPDKTITLTFPPSATFEEALEKLSPDPDKKITLVEKDPTTVTVAESAG [r14_404_JUSTAS] | 0.852 ± 0.16 kcal/mol | 0.873 ± 0.13 kcal/mol | 0.781 ± 0.051 kcal/mol
SASSELLELLKALPTPEVPTDPIFTLEEPDRPIRVLSYDPETGLVTMLIPGTGARLIRDPASGTYTLLPSAG [r14_359_JUSTAS] | 0.92 ± 0.071 kcal/mol | 0.578 ± 0.066 kcal/mol | -0.184 ± 0.07 kcal/mol
SASSFPPGSTATLTVRVTDPAGTATTTLTIPLSVDPSTGKAVSLEEVYEILKELGVDPANVTITSLTVSSAG [r14_93_JUSTAS] | 3.143 ± 0.024 kcal/mol | 3.07 ± 0.08 kcal/mol | 3.07 ± 0.088 kcal/mol
SASSSFTLPGLKLEVETQKVSTFPTPDGTPVVLYETTIHFLEVPESLRAEGKPLSLESSVKKLKVVPLPSAG [r14_942_JUSTAS] | 0.453 ± 0.33 kcal/mol | 0.391 ± 0.2 kcal/mol | 0.277 ± 0.14 kcal/mol
SASSSMSSSSTSRTVPTPEGPVSITITFYPSTGKYTATITDPATSTATTVPSPGSSVEEAIAEAIALLASAG [r14_65_JUSTAS] | 2.39 ± 0.022 kcal/mol | 2.21 ± 0.088 kcal/mol | 1.94 ± 0.091 kcal/mol
SASSVEKEFDSIEDALKAIKEALAKKVPVKMKMDPETVKELKKAGFPDIDVTKEKLPNGNEYYLLELLFSAG [r14_127_JUSTAS] | 1.2 ± 0.051 kcal/mol | 1.15 ± 0.058 kcal/mol | 1.06 ± 0.019 kcal/mol

Sequence | folding stability dG unfold [1] | folding stability dG unfold [2] | folding stability dG unfold [3]
SASVTTLTFTVTYPGGETETFTVTVPNLTEEEAKALAEKLAEEIQEKSKKPGVKVEVSITRYPADDPALSAG [r14_207_JUSTAS] | 4.13 ± 0.21 kcal/mol | 4.2 ± 0.18 kcal/mol | 3.9 ± 0.17 kcal/mol
SATKTITIELPVDVPVEVLKEFFEALGFTEMEFYETEDPRTLVVRFTVPGDPVTVIVIVRPLPVPPDEPLSA [r9_1090_TrMRF] | 3.57 ± 0.063 kcal/mol | 3.55 ± 0.12 kcal/mol | 3.29 ± 0.16 kcal/mol
SATLTFTATLPDGSRVLEVTAEPRPDGTVTIRMRAEFTFAPGVTVTVPATITVPVPPPPALPPDDPRLFSAG [r14_95_TrMRF] | 3.33 ± 0.05 kcal/mol | 3.09 ± 0.086 kcal/mol | 2.73 ± 0.057 kcal/mol
SATPYTFTLPDGYVIPAYKLPDGTVRVTAQYYDPVDRKPVGTYEATADPTDGTIELTFPNGDKATITLPDSA [r9_56_TrMRF] | 1.01 ± 0.1 kcal/mol | 1.01 ± 0.09 kcal/mol | 0.859 ± 0.051 kcal/mol
SAVSTAQLPDDTTLTTITLPGDPSVTLTITTRKLPDGTPYLDATITLPDGTPVTVTFPAGTEAAVIAALASA [r9_310_JUSTAS] | 2.46 ± 0.029 kcal/mol | 2.44 ± 0.086 kcal/mol | 2.51 ± 0.097 kcal/mol
SAVTLLSTEFVPEEGVVRLLFERPAPPDTTTFTFSVSVNGYPIESISLSVDPATNTATATATAKVPPGLSAG [r14_244_JUSTAS] | 4.1 ± 0.11 kcal/mol | 3.2 ± 0.22 kcal/mol | 2.42 ± 0.16 kcal/mol
SAWIEIEKDPDGMFELEIPWPDGHPVKIHYNPDDGKPLHIMFPNGWHLQIWISPDGKIEIEDIHPIPPNSAG [r14_877_TrROS] | 3.12 ± 0.049 kcal/mol | 3.01 ± 0.13 kcal/mol | 3.11 ± 0.24 kcal/mol
SAWKIWIEFTPGDPGDTYQIRIDPNSPNLEALLKELAQMFKYEVKDAEVEYNPNGSVWVEFKVDELKPPSAG [r14_655_TrROS] | 2.67 ± 0.056 kcal/mol | 2.37 ± 0.095 kcal/mol | 1.77 ± 0.081 kcal/mol
SDIEIERDPNMIRIEHTYPFDNYRVKISLYVMVGPDGQFMLMIPIEIELPPPPPTPEKDPNGKEKWKPDASA [r9_456_TrROS] | 4.27 ± 0.21 kcal/mol | 3.85 ± 0.53 kcal/mol | 2.67 ± 0.21 kcal/mol
SDIKIENYERNPGNGMYMWTVKLPDDGKKIEIMYPPGGIYISVEHPGKKKMFPFKSWEDMLDQVKDLLKNSA [r9_527_TrROS] | 1.79 ± 0.23 kcal/mol | 1.36 ± 0.26 kcal/mol | 1.24 ± 0.045 kcal/mol
SDKIIIPIYLPPGQDPDEIKNEIKWFARELWDKLGLPPNVKVEIEPRPYPEGYRRYMITIRLGGKEITIWSA [r9_776_TrROS] | 3.6 ± 0.053 kcal/mol | 3.34 ± 0.22 kcal/mol | 3.08 ± 0.1 kcal/mol
SDKIKNMTIEEILKKLPKGVKVGEKVEIEIDGKKITITKVEVVKDKNGKEIKRIYIEVEIDGEKIIIEIESA [r9_279_TrROS_Hall] | 2.36 ± 0.27 kcal/mol | 2.69 ± 0.46 kcal/mol | 2.39 ± 0.23 kcal/mol
SDMKIRIDDIDIQPLDEDGQPITINYKIEFGGQPVYFQIEIWVKPDGPVVIKIDIYNPDNGKPFEWTFPISA [r9_241_TrROS] | 2.83 ± 0.08 kcal/mol | 2.48 ± 0.23 kcal/mol | 2.13 ± 0.09 kcal/mol
SDPGHKFKMEIVREIYLPGQIRIFVHKMEHPNGNPWVNVMVRNPDGQMEPIAMVPSDDPDAKDEALKLIKSA [r9_1069_TrROS] | 0.506 ± 0.14 kcal/mol | 0.391 ± 0.1 kcal/mol | 0.035 ± 0.12 kcal/mol
SDRIEIEIWRHPNWWMIKIKVRDDGEPVGTQSFPVDDGMDIEEIADNLLNRNPNYKVEITEIEPMPPPPGSA [r9_364_TrROS] | 3.82 ± 0.12 kcal/mol | 3.36 ± 0.41 kcal/mol | 2.86 ± 0.16 kcal/mol
SDYMPVHKMESDGKRNPNGQHEYEPKMEPVWVPVPPPPPRIRIPPEWREKLKELAEKLGHPITDDDINKISA [r9_487_TrROS] | 0.0759 ± 0.051 kcal/mol | -0.13 ± 0.31 kcal/mol | -0.283 ± 0.19 kcal/mol
SEALEKAAEAGVKTIYVYVKPGDLEEIKRLKALDVKIVLYATEEIPPEAFEALPGVKVEKVEWISPEELPSA [r9_671_TrMRF] | 2.08 ± 0.052 kcal/mol | 1.65 ± 0.1 kcal/mol | 0.759 ± 0.023 kcal/mol
SEEELENLPNVVRLELEVEIDGVRVRIETEFRLNEDGSLEVRTRIEVEPLPPPVEVVLDENGELVEVRVESA [r9_456_TrROS_Hall] | 3.42 ± 0.13 kcal/mol | 3.12 ± 0.14 kcal/mol | 2.81 ± 0.08 kcal/mol
